Reference: doi:10.1101/543108

Biological target: ATP synthase c-subunit (c10-ring) (Polytomella sp.)
Test: cryo-EM structure

ATP synthase c-subunit (c10-ring) (natural protein)
stoichiometry N: 10
